Tests used:
purified protein [1] = substrate: NC(=O)c1ccc[n+]([C@@H]2O[C@H](COP(=O)(O)OP(=O)(O)OC[C@H]3O[C@@H](n4cnc5c(N)ncnc54)[C@H](OP(=O)(O)O)[C@@H]3O)[C@@H](O)[C@H]2O)c1; experiment: purified protein; type: biochemical, Corynebacterium glutamicum; details: NADP 0.01-2 mM, 5 mM 6PG, 40 mM Tris-HCl pH 8.0, 20 °C, varied: cofactor
purified protein [2] = substrate: O=C(O)[C@H](O)[C@@H](O)[C@H](O)[C@H](O)COP(=O)(O)O; experiment: purified protein; type: biochemical, Corynebacterium glutamicum; details: 6PG 0.1-5 mM, 2 mM NADP, 40 mM Tris-HCl pH 8.0, 20 °C

B1: Cg6PGD (Corynebacterium glutamicum ATCC 13032) (protein)
chain: MTNGDNLAQIGVVGLAVMGSNLARNFARNGNTVAVYNRSTDKTDKLIADHGSEGNFIPSATVEEFVASLEKPRRAIIMVQAGNATDAVINQLADAMDEGDIIIDGGNALYTDTIRREKEISARGLHFVGAGISGGEEGALNGPSIMPGGPAKSYESLGPLLESIAANVDGTPCVTHIGPDGAGHFVKMVHNGIEYADMQVIGEAYHLLRYAAGMQPAEIAEVFKEWNAGDLDSYLIEITAEVLSQVDAETGKPLIDVIVDAAGQKGTGRWTVKAALDLGIATTGIGEAVFARALSGATSQRAAAQGNLPAGVLTDLEALGVDKAQFVEDVRRALYASKLVAYAQGFDEIKAGSDENNWDVDPRDLATIWRGGCIIRAKFLNRIVEAYDANAELESLLLDPYFKSELGDLIDSWRRVIVTATQLGLPIPVFASSLSYYDSLRAERLPAALIQGQRDFFGAHTYKRIDKDGSFHTEWSGDRSEVEA
notes: full length, 484 residues (Met1-Ala484), C-terminal His6 (pET-30a), E. coli BL21(DE3)-T1R
Work on B1 yielded a Km (purified protein [1]) of 0.1628 ± 0.0095 mM, a kcat (purified protein [1]) of 17.1 ± 0.282 s⁻¹ and a kcat/Km (purified protein [1]) of 105000 M⁻¹ s⁻¹. It also gave a Km (purified protein [2]) of 0.3408 ± 0.03 mM, a kcat (purified protein [2]) of 19 ± 0.452 s⁻¹ and a kcat/Km (purified protein [2]) of 55700 M⁻¹ s⁻¹.
